Molecular target: HLA-A*02:01
Experiment: IEDB peptide-MHC binding, purified MHC/competitive/radioactivity; ≥ and ≤ were set here for values at or beyond the usual limits of such assays
Details: source organism: Homo sapiens

| IC50 [nM] | Sequence |
| --- | --- |
| 17.9 | AVIGALLAV |
| 25.6 | FLLRWEQEI |
| 205 | FLPWHRLFLL |
| 95.2 | LLAGLVSLL |
| 3.9 | NMVPFFPPV |
| 167 | RLLGSLNST |
| 46.3 | RLMKQDFSV |
| 83.3 | SVMDPLIYA |
| 27.8 | VMGTLVALV |
| 66.7 | VVMGTLVAL |
| 15.6 | YAIDLPVSV |
| 104 | YVITTQHWL |

More lines, now with the values behind:

| Sequence | IC50 [nM] |
| --- | --- |
| ALLAGLVSL | 76.3 |
| FLCWGPFFL | 38.5 |
| FLPWHRLFL | 112 |
| FLRNQPLTFA | 139 |
| HLAVIGALL | 106 |
| RIWSWLLGA | 100 |
| SLDDYNHLV | 26.3 |
| SLHNLVHSFL | 263 |
| VLTALLAGL | 82 |
| WLLGAAMVGA | 32.1 |
